Experimental data reported in patent US20090263375A1 (WISCONSIN ALUMNI RESEARCH FOUNDATION, published 2009).

Key:
[1] = target: T1, endogenous Star-PAP (human, UniProt Q9H6E5 1-874); experiment: co-immunoprecipitation with antibodies against full-length Star-PAP, western blot
T1 sequence: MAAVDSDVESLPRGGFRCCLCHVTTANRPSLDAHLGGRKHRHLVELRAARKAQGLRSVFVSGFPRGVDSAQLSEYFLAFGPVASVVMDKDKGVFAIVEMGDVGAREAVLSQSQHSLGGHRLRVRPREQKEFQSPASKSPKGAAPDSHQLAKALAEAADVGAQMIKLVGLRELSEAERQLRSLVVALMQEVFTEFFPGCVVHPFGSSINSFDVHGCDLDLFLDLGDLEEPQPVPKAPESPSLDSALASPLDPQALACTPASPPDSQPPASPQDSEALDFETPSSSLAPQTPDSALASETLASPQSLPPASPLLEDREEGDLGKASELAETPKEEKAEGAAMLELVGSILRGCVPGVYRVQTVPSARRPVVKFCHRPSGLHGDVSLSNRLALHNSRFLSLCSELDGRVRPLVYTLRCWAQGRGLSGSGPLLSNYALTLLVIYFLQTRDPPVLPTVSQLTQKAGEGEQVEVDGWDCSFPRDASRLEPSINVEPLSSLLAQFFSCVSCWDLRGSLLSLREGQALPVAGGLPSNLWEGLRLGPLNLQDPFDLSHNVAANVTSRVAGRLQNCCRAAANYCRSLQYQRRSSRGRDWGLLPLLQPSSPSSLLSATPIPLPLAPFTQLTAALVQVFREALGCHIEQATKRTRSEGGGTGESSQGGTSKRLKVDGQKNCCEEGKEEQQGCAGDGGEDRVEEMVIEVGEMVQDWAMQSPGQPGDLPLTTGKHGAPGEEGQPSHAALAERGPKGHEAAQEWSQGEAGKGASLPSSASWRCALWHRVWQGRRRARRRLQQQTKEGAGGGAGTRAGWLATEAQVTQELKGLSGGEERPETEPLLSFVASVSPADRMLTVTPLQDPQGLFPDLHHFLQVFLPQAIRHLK

[2] = target: T2, Flag-PAPα (canonical poly(A) polymerase) (Homo sapiens (Human), UniProt P51003 1-745, limits assumed); experiment: FLAG affinity purification from HEK 293 cells, western blot
T2 construct: not shown: FLAG tag
Description: (§1) Affinity purification of Flag-Star-PAP and Flag-PAPα and their associated complex of proteins in parallel allowed a comparison of the complexes formed by Star-PAP and PAPα in more detail. Flag tagged Star-PAP and PAPα were purified from HEK 293 cells stably expressing Flag-Star-PAP or Flag-PAPα (following manufacturer's instructions; Sigma-Aldrich) and the presence of endogenous symplekin, CPSF¹⁰⁰, CPSF⁷³, CstF⁶⁴, RNA Pol II, Sm protein (Y12) and PIPKIα was assessed by western blotting. Like Flag-PAPα, Flag-Star-PAP associates with symplekin, CPSF¹⁰⁰ and CPSF⁷³, further confirmation that Star-PAP may function in an mRNA polyadenylation complex (FIG. 7). Also detected with both PAPs was a faster migrating form of RNA Pol II and Sm protein (Y-12), a component of the spliceosome, which is consistent with reports that the machinery for splicing and polyadenylation are coupled.

[3] = target: T3, Flag-Star-PAP (full length) (human, UniProt Q9H6E5 1-874); experiment: as above
T3 construct: Expressed in HEK 293 cells and purified on anti-FLAG M2 resin together with its associated complex; also called Flag tagged Star-PAP; full-length Star-PAP; not shown: FLAG tag
T3 sequence: T1 sequence
Description: as §1

[4] = target: T2, Flag-PAPα (canonical poly(A) polymerase); experiment: FLAG affinity purification from HEK 293 cells, immunoblot with a CKIα specific antibody
Description: (A) FLAG purified Star-PAP and PAPα complexes were separated by SDS-PAGE, transferred to nitrocellulose and probed with anti-FLAG and -CKIα antibodies. (B) Endogeneous Star-PAP was immunoprecipitated from HEK 293 cells. The resulting precipitates were immunoblotted with Star-PAP and CKIα specific antibodies. A non-specific IgG immunoprecipitation was used as a control. (C) Purified FLAG-Star-PAP complex was incubated with 0, 0.1, 1.0, or 100 μM IC261 (IC₅₀ 11 μM). (D) Purified FLAG-Star-PAP complex was incubated with […] (IC₅₀˜6.0 μM) prior to initiation of the kinase reaction by ATP. Arrow indicates Star-PAP protein.
Casein Kinase Iα (CKIα), is a protein kinase found in nuclear speckles; moreover, CKIα activity is inhibited by PI4,5P₂. […] FLAG proteins were expressed and purified as follows. Human Star-PAP and rat CKIα cDNAs were cloned in to the pFLAG-1 mammalian expression vector (Sigma). For each FLAG purification, four 10 cm dishes each containing ˜5×10^6 HEK 293 cells were transfected with 10 μg DNA and allowed to express for 48 hours. FLAG purifications were performed according to the manufacturer's directions.

T2 sequence (P51003 whole entry): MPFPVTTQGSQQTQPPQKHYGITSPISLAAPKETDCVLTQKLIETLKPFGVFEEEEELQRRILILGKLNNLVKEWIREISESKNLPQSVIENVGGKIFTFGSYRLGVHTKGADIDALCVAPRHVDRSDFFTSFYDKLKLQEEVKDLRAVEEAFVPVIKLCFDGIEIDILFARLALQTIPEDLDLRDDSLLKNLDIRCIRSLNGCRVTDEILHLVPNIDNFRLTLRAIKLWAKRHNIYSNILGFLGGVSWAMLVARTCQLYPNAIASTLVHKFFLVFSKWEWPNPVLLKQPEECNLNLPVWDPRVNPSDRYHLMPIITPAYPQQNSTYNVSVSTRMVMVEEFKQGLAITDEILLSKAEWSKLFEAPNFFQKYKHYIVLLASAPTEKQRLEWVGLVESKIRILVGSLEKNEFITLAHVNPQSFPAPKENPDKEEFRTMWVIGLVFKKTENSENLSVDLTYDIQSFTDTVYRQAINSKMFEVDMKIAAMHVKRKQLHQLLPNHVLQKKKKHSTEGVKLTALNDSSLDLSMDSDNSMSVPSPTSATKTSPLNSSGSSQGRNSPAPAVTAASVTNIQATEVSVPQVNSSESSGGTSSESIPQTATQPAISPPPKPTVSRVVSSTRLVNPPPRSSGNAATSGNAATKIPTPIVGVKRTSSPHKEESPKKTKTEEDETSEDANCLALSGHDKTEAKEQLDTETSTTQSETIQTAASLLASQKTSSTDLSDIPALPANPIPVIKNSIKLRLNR

B1: PIPKIα (endogenous) (enzyme, human, UniProt Q99755 1-562, looked up)
chain: MASASSGPSSSVGFSSFDPAVPSCTLSSAASGIKRPMASEVLEARQDSYISLVPYASGMPIKKIGHRSVDSSGETTYKKTTSSALKGAIQLGITHTVGSLSTKPERDVLMQDFYVVESIFFPSEGSNLTPAHHYNDFRFKTYAPVAFRYFRELFGIRPDDYLYSLCSEPLIELCSSGASGSLFYVSSDDEFIIKTVQHKEAEFLQKLLPGYYMNLNQNPRTLLPKFYGLYCVQAGGKNIRIVVMNNLLPRSVKMHIKYDLKGSTYKRRASQKEREKPLPTFKDLDFLQDIPDGLFLDADMYNALCKTLQRDCLVLQSFKIMDYSLLMSIHNIDHAQREPLSSETQYSVDTRRPAPQKALYSTAMESIQGEARRGGTMETDDHMGGIPARNSKGERLLLYIGIIDILQSYRFVKKLEHSWKALVHDGDTVSVHRPGFYAERFQRFMCNTVFKKIPLKPSPSKKFRSGSSFSRRAGSSGNSCITYQPSVSGEHKAQVTTKAEVEPGVHLGRPDVLPQTPPLEEISEGSPIPDPSFSPLVGETLQMLTTSTTLEKLEVAESEFTH
notes: Detected by western blot in immunoprecipitates and FLAG-purified complexes; also called type I phosphatidylinositol phosphate kinase alpha; PIP kinase
B1: binds [1]; no binding [2]; binds [3].

B2: Casein Kinase Iα (CKIα), endogenous (enzyme, human, UniProt P48729 2-337, looked up)
chain: ASSSGSKAEFIVGGKYKLVRKIGSGSFGDIYLAINITNGEEVAVKLESQKARHPQLLYESKLYKILQGGVGIPHIRWYGQEKDYNVLVMDLLGPSLEDLFNFCSRRFTMKTVLMLADQMISRIEYVHTKNFIHRDIKPDNFLMGIGRHCNKLFLIDFGLAKKYRDNRTRQHIPYREDKNLTGTARYASINAHLGIEQSRRDDMESLGYVLMYFNRTSLPWQGLKAATKKQKYEKISEKKMSTPVEVLCKGFPAEFAMYLNYCRGLRFEEAPDYMYLRQLFRILFRTLNHQYDYTFDWTMLKQKAAQQAASSSGQGQQAQTPTGKQTDKTKSNMKGF
notes: Detected with a CKIα specific antibody; also called CIKIα
B2: no binding [4].
